Reference: patent publication US7306904

Target: soluble PDGF-alpha receptor (UniProt P16234)
Experiment: proximity ligation competition assay in solution: 100 nM PDGF-AA added to 6.4 pM PDGF-BB, 2.5 nM soluble PDGF-alpha receptor and 5 pM aptamer probes; the signal comes from PDGF-BB displaced from the receptor, compared with no PDGF-AA

Sequence of UniProt P16234 (P16234 24-524 limits assumed): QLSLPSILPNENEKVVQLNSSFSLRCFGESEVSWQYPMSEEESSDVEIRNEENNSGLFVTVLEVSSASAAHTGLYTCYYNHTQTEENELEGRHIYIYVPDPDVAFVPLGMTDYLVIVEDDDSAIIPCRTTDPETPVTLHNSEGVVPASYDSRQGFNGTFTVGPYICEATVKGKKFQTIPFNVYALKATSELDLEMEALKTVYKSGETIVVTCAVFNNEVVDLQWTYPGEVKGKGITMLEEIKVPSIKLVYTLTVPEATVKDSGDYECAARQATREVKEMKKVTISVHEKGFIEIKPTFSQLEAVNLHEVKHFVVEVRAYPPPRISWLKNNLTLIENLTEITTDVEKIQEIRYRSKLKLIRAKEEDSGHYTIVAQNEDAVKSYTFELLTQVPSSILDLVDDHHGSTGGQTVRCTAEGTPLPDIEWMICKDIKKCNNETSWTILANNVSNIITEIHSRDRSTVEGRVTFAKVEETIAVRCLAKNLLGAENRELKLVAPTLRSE

- fold increase in signal: 3 fold
Substance: PDGF-AA (from UniProt P04085 87-211) (ligand)
